27 molecules from US20150344570A1 (published 2015) can be followed below.

The target of the assay is T1, FcγRIIa R (FcγRIIa, allotype with Arg at position 131), extracellular domain with C-terminal His tag (human, UniProt P12318 34-217).
T1 construct: extracellular domain; also called FcγRIIa R type; 2aR
T1 sequence (looked up): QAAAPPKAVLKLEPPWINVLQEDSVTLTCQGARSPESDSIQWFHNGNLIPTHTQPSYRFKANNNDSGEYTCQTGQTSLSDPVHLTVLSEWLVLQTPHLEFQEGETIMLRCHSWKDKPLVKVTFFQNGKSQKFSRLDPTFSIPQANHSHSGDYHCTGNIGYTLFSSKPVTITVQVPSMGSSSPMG
Description: SPR (Biacore), antibody captured on antigen peptide chip, FcγR as analyte; relative binding.

B1: GpH7-A5/GpH7-B3 variant S337_03V/GpL16-k0 (antibody, human IgG1, kappa)
heavy 1: not shown
heavy 2: not shown
light: DIVMTQSPLSLPVTPGEPASISCQASESLVHSNRNTYLHWYLQKPGQSPQLLIYKVSNRFSGVPDRFSGSGSGTDFTLKISRVEAEDVGVYYCSQNTHVPPTFGQGTKVEIERTVAAPSVFIFPPSDEQLKSGTASVVCLLNNFYPREAKVQWKVDNALQSGNSQESVTEQDSKDSTYSLSSTLTLSKADYEKHKVYACEVTHQGLSSPVTKSFNRGEC
notes: also called He Ab
For B1, the He/Con_2aR is 106 % of GpH7-A5/GpH7-B3/GpL16-k0 (=100).

B2: GpH7-A5/GpH7-B3 variant P331_18N/GpL16-k0 (antibody, human IgG1, kappa)
heavy 1: not shown
heavy 2: not shown
light: B1 light
notes: also called He Ab
Regarding B2, the He/Con_2aR is 105 % of GpH7-A5/GpH7-B3/GpL16-k0 (=100).

B3: GpH7-A5/GpH7-B3 variant P331_08L/GpL16-k0 (antibody, human IgG1, kappa)
heavy 1: not shown
heavy 2: not shown
light: B1 light
notes: also called He Ab
For the molecule B3, the He/Con_2aR was 102 % of GpH7-A5/GpH7-B3/GpL16-k0 (=100).

B4: GpH7-A5/GpH7-B3 variant S337_11K/GpL16-k0 (antibody, human IgG1, kappa)
heavy 1: not shown
heavy 2: not shown
light: B1 light
notes: also called He Ab
B4: the He/Con_2aR was 103 % of GpH7-A5/GpH7-B3/GpL16-k0 (=100).

B5: GpH7-A5/GpH7-B3 variant P331_09D/GpL16-k0 (antibody, human IgG1, kappa)
heavy 1: not shown
heavy 2: not shown
light: B1 light
notes: also called He Ab
Consider B5, for which the He/Con_2aR is 102 % of GpH7-A5/GpH7-B3/GpL16-k0 (=100).

B6: GpH7-A5/GpH7-B3 variant T335_05P/GpL16-k0 (antibody, human IgG1, kappa)
heavy 1: not shown
heavy 2: not shown
light: B1 light
notes: also called He Ab
B6: the He/Con_2aR is 104 % of GpH7-A5/GpH7-B3/GpL16-k0 (=100).

B7: GpH7-A5/GpH7-B3 variant S267_03V/GpL16-k0 (antibody, human IgG1, kappa)
heavy 1: not shown
heavy 2: not shown
light: B1 light
notes: also called He Ab
With B7, the He/Con_2aR is 116 % of GpH7-A5/GpH7-B3/GpL16-k0 (=100).

B8: GpH7-A5/GpH7-B3 variant S239_14T/GpL16-k0 (antibody, human IgG1, kappa)
heavy 1: not shown
heavy 2: not shown
light: B1 light
notes: also called He Ab
Turning to B8, the He/Con_2aR was 103 % of GpH7-A5/GpH7-B3/GpL16-k0 (=100).

B9: GpH7-A5/GpH7-B3 variant T335_01G/GpL16-k0 (antibody, human IgG1, kappa)
heavy 1: not shown
heavy 2: not shown
light: B1 light
notes: also called He Ab
Regarding B9, the He/Con_2aR was 104 % of GpH7-A5/GpH7-B3/GpL16-k0 (=100).

B10: GpH7-A5/GpH7-B3 variant S337_07I/GpL16-k0 (antibody, human IgG1, kappa)
heavy 1: not shown
heavy 2: not shown
light: B1 light
notes: also called He Ab
For B10, the He/Con_2aR was 109 % of GpH7-A5/GpH7-B3/GpL16-k0 (=100).

B11: GpH7-A5/GpH7-B3 variant S239_05P/GpL16-k0 (antibody, human IgG1, kappa)
heavy 1: not shown
heavy 2: not shown
light: B1 light
notes: also called He Ab
With B11, the He/Con_2aR is 106 % of GpH7-A5/GpH7-B3/GpL16-k0 (=100).

B12: GpH7-A5/GpH7-B3 variant S298_08L/GpL16-k0 (antibody, human IgG1, kappa)
heavy 1: not shown
heavy 2: not shown
light: B1 light
notes: also called He Ab
For B12, the He/Con_2aR was 105 % of GpH7-A5/GpH7-B3/GpL16-k0 (=100).

B13: GpH7-A5/GpH7-B3 variant T335_02A/GpL16-k0 (antibody, human IgG1, kappa)
heavy 1: not shown
heavy 2: not shown
light: B1 light
notes: also called He Ab
On to B13, for which the He/Con_2aR is 102 % of GpH7-A5/GpH7-B3/GpL16-k0 (=100).

B14: GpH7-A5/GpH7-B3 variant S337_16H/GpL16-k0 (antibody, human IgG1, kappa)
heavy 1: not shown
heavy 2: not shown
light: B1 light
notes: also called He Ab
Consider B14, for which the He/Con_2aR is 109 % of GpH7-A5/GpH7-B3/GpL16-k0 (=100).

B15: GpH7-A5/GpH7-B3 variant S239_08L/GpL16-k0 (antibody, human IgG1, kappa)
heavy 1: not shown
heavy 2: not shown
light: B1 light
notes: also called He Ab
For the molecule B15, the He/Con_2aR is 122 % of GpH7-A5/GpH7-B3/GpL16-k0 (=100).

B16: GpH7-A5/GpH7-B3 variant P331_20W/GpL16-k0 (antibody, human IgG1, kappa)
heavy 1: not shown
heavy 2: not shown
light: B1 light
notes: also called He Ab
On to B16, for which the He/Con_2aR was 110 % of GpH7-A5/GpH7-B3/GpL16-k0 (=100).

B17: GpH7-A5/GpH7-B3 variant S239_18N/GpL16-k0 (antibody, human IgG1, kappa)
heavy 1: not shown
heavy 2: not shown
light: B1 light
notes: also called He Ab
With B17, the He/Con_2aR is 111 % of GpH7-A5/GpH7-B3/GpL16-k0 (=100).

B18: GpH7-A5/GpH7-B3 variant S239_10E/GpL16-k0 (antibody, human IgG1, kappa)
heavy 1: not shown
heavy 2: not shown
light: B1 light
notes: also called He Ab
For the molecule B18, the He/Con_2aR is 135 % of GpH7-A5/GpH7-B3/GpL16-k0 (=100).

B19: GpH7-B3 variant Y296_14T/GpL16-k0 (antibody, human IgG1, kappa)
heavy: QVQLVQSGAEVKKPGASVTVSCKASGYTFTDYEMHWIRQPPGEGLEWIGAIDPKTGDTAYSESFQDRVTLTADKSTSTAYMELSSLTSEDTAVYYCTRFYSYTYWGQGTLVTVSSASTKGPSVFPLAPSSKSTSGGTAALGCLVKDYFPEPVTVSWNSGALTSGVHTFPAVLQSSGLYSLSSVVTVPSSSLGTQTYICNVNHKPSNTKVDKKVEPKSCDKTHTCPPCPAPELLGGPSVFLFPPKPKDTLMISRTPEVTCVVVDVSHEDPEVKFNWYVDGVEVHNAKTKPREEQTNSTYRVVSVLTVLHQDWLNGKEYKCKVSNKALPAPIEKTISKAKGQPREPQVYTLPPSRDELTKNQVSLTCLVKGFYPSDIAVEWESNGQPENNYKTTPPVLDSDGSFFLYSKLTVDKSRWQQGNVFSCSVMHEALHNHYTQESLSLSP
light: B1 light
notes: also called Ho Ab
For the molecule B19, the Ho/Con_2aR was 90.3 % of GpH7-B3/GpL16-k0 (=100).

B20: GpH7-A5/GpH7-B3 variant S337_20W/GpL16-k0 (antibody, human IgG1, kappa)
heavy 1: not shown
heavy 2: not shown
light: B1 light
notes: also called He Ab
Consider B20, for which the He/Con_2aR was 110 % of GpH7-A5/GpH7-B3/GpL16-k0 (=100).

B21: GpH7-A5/GpH7-B3 variant S337_18N/GpL16-k0 (antibody, human IgG1, kappa)
heavy 1: not shown
heavy 2: not shown
light: B1 light
notes: also called He Ab
As for B21, the He/Con_2aR is 107 % of GpH7-A5/GpH7-B3/GpL16-k0 (=100).

B22: GpH7-A5/GpH7-B3 variant P331_14T/GpL16-k0 (antibody, human IgG1, kappa)
heavy 1: not shown
heavy 2: not shown
light: B1 light
notes: also called He Ab
As to B22, the He/Con_2aR was 104 % of GpH7-A5/GpH7-B3/GpL16-k0 (=100).

B23: GpH7-A5/GpH7-B3 variant P331_16H/GpL16-k0 (antibody, human IgG1, kappa)
heavy 1: not shown
heavy 2: not shown
light: B1 light
notes: also called He Ab
Consider B23, for which the He/Con_2aR is 114 % of GpH7-A5/GpH7-B3/GpL16-k0 (=100).

B24: GpH7-A5/GpH7-B3 variant S298_06M/GpL16-k0 (antibody, human IgG1, kappa)
heavy 1: not shown
heavy 2: not shown
light: B1 light
notes: also called He Ab
As to B24, the He/Con_2aR is 108 % of GpH7-A5/GpH7-B3/GpL16-k0 (=100).

B25: GpH7-A5/GpH7-B3 variant S337_04F/GpL16-k0 (antibody, human IgG1, kappa)
heavy 1: not shown
heavy 2: not shown
light: B1 light
notes: also called He Ab
On to B25, for which the He/Con_2aR was 105 % of GpH7-A5/GpH7-B3/GpL16-k0 (=100).

B26: GpH7-A5/GpH7-B3 variant P331_06M/GpL16-k0 (antibody, human IgG1, kappa)
heavy 1: not shown
heavy 2: not shown
light: B1 light
notes: also called He Ab
With B26, the He/Con_2aR is 106 % of GpH7-A5/GpH7-B3/GpL16-k0 (=100).

B27: GpH7-A5/GpH7-B3 variant P331_13S/GpL16-k0 (antibody, human IgG1, kappa)
heavy 1: not shown
heavy 2: not shown
light: B1 light
notes: also called He Ab
For B27, the He/Con_2aR is 105 % of GpH7-A5/GpH7-B3/GpL16-k0 (=100).
